Target: bovine trypsin (bovine) (UniProt P00760)
Experiment: cell-based or functional assay

Sequence of UniProt P00760 (P00760 24-246): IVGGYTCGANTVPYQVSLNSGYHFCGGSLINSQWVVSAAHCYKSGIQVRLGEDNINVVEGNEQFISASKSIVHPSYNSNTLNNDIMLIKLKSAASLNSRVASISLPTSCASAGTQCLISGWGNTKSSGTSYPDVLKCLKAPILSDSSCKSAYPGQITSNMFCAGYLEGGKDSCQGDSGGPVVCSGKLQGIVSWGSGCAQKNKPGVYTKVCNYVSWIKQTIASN

Trypsin inhibition activity: 13700 TIU/g
Substance: native chicken ovomucoid (nOVD), from chicken egg white (from UniProt P01005 25-210)
